Source: publication PMC8945915, “An Electrochemical Impedance Spectroscopy-Based Aptasensor for the Determination of SARS-CoV-2-RBD Using a Carbon Nanofiber–Gold Nanocomposite Modified Screen-Printed Electrode”

Molecular target: SARS-CoV-2 spike receptor-binding domain (SARS-CoV-2-RBD, ~35 kDa) (SARS-CoV-2, UniProt P0DTC2 319-541)
Assay: electrochemical impedance spectroscopy (Langmuir isotherm)

B1: thiol-terminal SARS-CoV-2-RBD aptamer (ssDNA)
DNA: CAGCACCGACCTTGTGCTTTGGGAGTGCTGGTCCAAGGGCGTTAATGGACA
modifications: 5' SH-(CH2)6 thiol
- Kd: 0.42 nM
